Target: HDM2 (used for surface plasmon resonance and the competitive binding assay) (UniProt Q00987 1-491)
Test: SPR

HDM2 (used for surface plasmon resonance and the competitive binding assay), sequence (Q00987 whole entry): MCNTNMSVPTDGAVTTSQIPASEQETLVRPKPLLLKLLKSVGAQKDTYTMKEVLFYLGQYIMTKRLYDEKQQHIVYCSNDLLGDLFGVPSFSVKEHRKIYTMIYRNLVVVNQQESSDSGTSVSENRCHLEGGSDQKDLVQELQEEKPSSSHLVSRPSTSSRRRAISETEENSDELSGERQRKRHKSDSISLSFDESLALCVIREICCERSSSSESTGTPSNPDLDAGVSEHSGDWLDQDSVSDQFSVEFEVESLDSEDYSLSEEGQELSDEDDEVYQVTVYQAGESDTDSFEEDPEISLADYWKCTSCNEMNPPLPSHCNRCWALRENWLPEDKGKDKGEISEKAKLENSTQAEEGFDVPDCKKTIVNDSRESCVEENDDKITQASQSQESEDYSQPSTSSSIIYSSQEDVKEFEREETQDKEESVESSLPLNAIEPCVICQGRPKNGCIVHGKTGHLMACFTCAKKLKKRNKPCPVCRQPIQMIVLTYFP

LWKLLPEDDVLSPLPSQAM (isoaspartate at 29 and 30) [p53 peptide (amino acids 22-40) N29,30IsoD]
Kd: 694 µM

Source: publication PMC3621463 (Nature Communications, 2012)
